Assay results reported in patent US20240199757A1 (UNIVERSITY OF CHICAGO, published 2024).

How the values were obtained:
[1] = molecular target: T1, Full-length murine NT5E (recombinant) (murine, UniProt Q61503 29-552); test: ELISA, biotinylated NT5E on neutravidin plate, 1 mM ATP; ELISA, recombinant mNT5E, with ATP (EC50ATP)
T1 construct: also called mNT5E
T1 sequence: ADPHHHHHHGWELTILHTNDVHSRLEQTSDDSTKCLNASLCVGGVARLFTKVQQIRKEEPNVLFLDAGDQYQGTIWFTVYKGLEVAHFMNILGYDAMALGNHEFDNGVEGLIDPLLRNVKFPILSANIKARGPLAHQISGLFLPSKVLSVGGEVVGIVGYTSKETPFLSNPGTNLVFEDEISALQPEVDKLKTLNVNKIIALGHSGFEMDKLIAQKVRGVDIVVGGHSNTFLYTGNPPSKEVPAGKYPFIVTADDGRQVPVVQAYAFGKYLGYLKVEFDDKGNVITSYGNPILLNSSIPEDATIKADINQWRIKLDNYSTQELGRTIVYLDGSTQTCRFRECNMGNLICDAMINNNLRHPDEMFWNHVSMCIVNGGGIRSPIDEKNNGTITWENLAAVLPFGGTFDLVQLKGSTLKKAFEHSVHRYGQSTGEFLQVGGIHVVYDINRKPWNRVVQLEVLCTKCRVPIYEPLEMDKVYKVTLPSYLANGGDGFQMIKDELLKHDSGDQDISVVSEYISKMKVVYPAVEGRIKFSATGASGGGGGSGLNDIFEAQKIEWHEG
Experimental: (B) Protein ELISA: Protein-based multipoint ELISA was performed to estimate the affinity of the generated Fabs and IgGs to NT5E. The binding of the Fabs and IgGs to the closed form of NT5E were determined in ELISA buffer (HBST) supplemented with 10 μM zinc chloride and 1 mM ATP while the binding of the same to open form of NT5E were determined in ELISA buffer (HBST) without any cofactors. A fixed concentration of the immobilized target (50 nM) on ELISA plate was incubated with 3-fold serial dilutions of the purified Fabs and IgGs starting from 3 μM and 1 μM respectively for 15 min. The plates were washed and were subsequently incubated with a secondary HRP-conjugated anti-protein L monoclonal antibody (#32420, ThermoFisher, 1:6000 dilution). As with phage ELISA, the plates were again washed, developed with TMB substrate and quenched with 1.0 M HCl, and absorbance (Abs450) was determined. To determine the affinity (EC50), the data were fitted with a non-linear, 4-parameter logistic curve in OriginLab.

[2] = molecular target: T2, Full-length cynomolgus NT5E (recombinant) (cynomolgus, UniProt P21589 27-549 (human entry)); test: SPR, His-captured NT5E, 1 mM ATP
T2 construct: also called cNT5E; cyno NT5E
T2 chain: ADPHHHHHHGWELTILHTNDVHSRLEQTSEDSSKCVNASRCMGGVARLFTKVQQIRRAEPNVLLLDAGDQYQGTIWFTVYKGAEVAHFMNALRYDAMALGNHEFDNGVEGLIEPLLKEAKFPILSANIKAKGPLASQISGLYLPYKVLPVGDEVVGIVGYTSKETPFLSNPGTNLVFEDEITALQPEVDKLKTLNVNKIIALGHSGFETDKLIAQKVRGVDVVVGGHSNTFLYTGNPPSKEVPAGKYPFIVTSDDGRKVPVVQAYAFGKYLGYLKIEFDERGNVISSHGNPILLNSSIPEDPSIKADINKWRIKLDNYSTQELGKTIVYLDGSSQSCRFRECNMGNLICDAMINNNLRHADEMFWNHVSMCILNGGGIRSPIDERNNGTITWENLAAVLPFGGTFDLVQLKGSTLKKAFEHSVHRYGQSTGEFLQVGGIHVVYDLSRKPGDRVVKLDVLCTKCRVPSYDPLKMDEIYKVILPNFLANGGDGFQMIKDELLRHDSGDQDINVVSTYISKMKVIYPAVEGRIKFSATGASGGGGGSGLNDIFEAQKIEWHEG
Experimental: (§1) All SPR experiments were performed at 25° C. using MASS-1 (Bruker) instrument. hNT5E, mNT5E and cNT5E were immobilized onto a nitrilotriacetic acid (NTA) sensor chip via His-tag. For kinetic experiments, after ligand immobilization, 2-fold serial dilutions of the Fabs were injected. After double-reference subtraction data were analyzed with BiaEvaluation (GE Healthcare) or Sierra Analyser (Bruker) software. The experiments were carried in buffers in presence and absence of 1 mM ATP to compare the kinetic parameters of the Fabs binding to closed and open form of NT5E.

[3] = molecular target: T3, Full-length human NT5E (recombinant, in-house) (human, UniProt P21589 27-549); test: SPR, His-captured NT5E, 1 mM ATP
T3 construct: also called hNT5E; hNT5EWT
T3 sequence: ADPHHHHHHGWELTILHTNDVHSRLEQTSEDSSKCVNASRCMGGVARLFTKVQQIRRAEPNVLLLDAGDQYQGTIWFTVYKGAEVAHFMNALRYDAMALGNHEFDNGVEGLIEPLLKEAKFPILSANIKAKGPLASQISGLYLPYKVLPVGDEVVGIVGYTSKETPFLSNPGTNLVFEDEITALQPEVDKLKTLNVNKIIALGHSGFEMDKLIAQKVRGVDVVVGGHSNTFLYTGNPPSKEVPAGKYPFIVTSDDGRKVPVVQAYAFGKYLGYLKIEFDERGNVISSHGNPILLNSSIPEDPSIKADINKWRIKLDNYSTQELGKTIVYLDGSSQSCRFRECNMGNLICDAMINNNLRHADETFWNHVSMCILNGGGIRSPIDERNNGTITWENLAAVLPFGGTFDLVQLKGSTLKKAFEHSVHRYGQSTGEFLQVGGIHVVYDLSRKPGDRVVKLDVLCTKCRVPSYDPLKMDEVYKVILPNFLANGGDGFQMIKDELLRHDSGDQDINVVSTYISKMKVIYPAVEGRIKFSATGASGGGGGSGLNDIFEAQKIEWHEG
Experimental: as §1

B1: 1789 Fab (Fab, V domains shown)
VH: EVQLVESGGGLVQPGGSLRLSCAASGFNVSYSSIHWVRQAPGKGLEWVASISSSSGYTYYADSVKGRFTISADTSKNTAYLQMNSLRAEDTAVYYCARNYWGWYPFYYFAFDYWGQGTLVTV
VL: DIQMTQSPSSLSASVGDRVTITCRASQSVSSAVAWYQQKPGKAPKLLIYSASSLYSGVPSRFSGSRSGTDFTLTISSLQPEDFATYYCQQGWDYPITFGQGTKVEIKR
Binder B1 has an EC50 [1] of 132 nM, a Kd [2] of 32 nM and a koff [2] of 0.0051 s⁻¹. For the same binder, the kon [2] was 160000 M⁻¹ s⁻¹, the Kd [3] was 42 nM and the koff [3] was 0.0073 s⁻¹. The kon [3] was 170000 M⁻¹ s⁻¹.
